Source: patent US20160264649A1

Assays:
Experiment in all cases: cell-based or functional assay
[1] = molecular target: HIV-1 6535.3 (Acute) Env on pseudovirus (HIV-1)
[2] = molecular target: HIV-1 92RW020 Env (HIV-1)
[3] = molecular target: HIV-1 92UG005 Env (HIV-1)
[4] = molecular target: HIV-1 93IN905 Env (HIV-1)
[5] = molecular target: HIV-1 93IN905 Env on pseudovirus (HIV-1)
[6] = molecular target: HIV-1 98CN006 Env on pseudovirus (HIV-1)
[7] = molecular target: HIV-1 98CN009 Env on pseudovirus (HIV-1)
[8] = molecular target: HIV-1 98IN022 Env on pseudovirus (HIV-1)
HIV-1 APV-13 Env (HIV-1) = molecular target: HIV-1 APV-13 Env (HIV-1)
[9] = molecular target: HIV-1 APV_17 Env on pseudovirus (HIV-1)
[10] = molecular target: HIV-1 IAVI-C3 Env (HIV-1)
[11] = molecular target: HIV-1 LAVI_C22 Env on pseudovirus (HIV-1)
[12] = molecular target: HIV-1 MGRM-AE-001 Env (HIV-1)
[13] = molecular target: HIV-1 MGRM-AE-003 Env (HIV-1)
[14] = molecular target: HIV-1 MGRM-AE-005 Env (HIV-1)
[15] = molecular target: HIV-1 MGRM-AE-006 Env (HIV-1)
[16] = molecular target: HIV-1 MGRM-AE-007 Env (HIV-1)
[17] = molecular target: HIV-1 MGRM-AG-006 Env (HIV-1)
[18] = molecular target: HIV-1 MGRM-AG-008 Env (HIV-1)
[19] = molecular target: HIV-1 MGRM-AG-009 Env (HIV-1)
[20] = molecular target: HIV-1 MGRM-C-008 Env on pseudovirus (HIV-1)
[21] = molecular target: HIV-1 MGRM-C-012 Env on pseudovirus (HIV-1)
[22] = molecular target: HIV-1 MGRM-C-014 Env on pseudovirus (HIV-1)
[23] = molecular target: HIV-1 MGRM-C-019 Env on pseudovirus (HIV-1)
[24] = molecular target: HIV-1 MGRM-C-024 Env on pseudovirus (HIV-1)
[25] = molecular target: HIV-1 MGRM-Chronic-B-001 Env on pseudovirus (HIV-1)
[26] = molecular target: HIV-1 MGRM-Chronic-B-010 Env on pseudovirus (HIV-1)
[27] = molecular target: HIV-1 MGRM-Chronic-B-011 Env on pseudovirus (HIV-1)
[28] = molecular target: HIV-1 MGRM-Chronic-B-012 Env on pseudovirus (HIV-1)
[29] = molecular target: HIV-1 MGRM-Chronic-B-018 Env on pseudovirus (HIV-1)
[30] = molecular target: HIV-1 MGRM-D-011 Env (HIV-1)
[31] = molecular target: HIV-1 MGRM-D-012 Env (HIV-1)
[32] = molecular target: HIV-1 MGRM-D-013 Env (HIV-1)
[33] = molecular target: HIV-1 MGRM-D-016 Env (HIV-1)
[34] = molecular target: HIV-1 MGRM-D-019 Env (HIV-1)
[35] = molecular target: HIV-1 MGRM-D-021 Env (HIV-1)
[36] = molecular target: HIV-1 MGRM-D-024 Env (HIV-1)
[37] = molecular target: HIV-1 MGRM-D-026 Env (HIV-1)
[38] = molecular target: HIV-1 MGRM-F1-004 Env (HIV-1)
[39] = molecular target: HIV-1 MGRM-F1-018 Env (HIV-1)
[40] = molecular target: HIV-1 MGRM-G-001 Env (HIV-1)
[41] = molecular target: HIV-1 MGRM-G-006 Env (HIV-1)
[42] = molecular target: HIV-1 MGRM-G-009 Env (HIV-1)
[43] = molecular target: HIV-1 MGRM-G-011 Env (HIV-1)
[44] = molecular target: HIV-1 MGRM-G-014 Env (HIV-1)
[45] = molecular target: HIV-1 MGRM-G-015 Env (HIV-1)
[46] = molecular target: HIV-1 MGRM-G-016 Env (HIV-1)
[47] = molecular target: HIV-1 MGRM-G-027 Env (HIV-1)
[48] = molecular target: HIV-1 MGRM-G-028 Env (HIV-1)
[49] = molecular target: HIV-1 THR0.18 (Acute) Env on pseudovirus (HIV-1)
[50] = molecular target: aMLV envelope (negative control pseudovirus)
aMLV envelope = molecular target: aMLV envelope

Substance: b12 (antibody)
- IC50 [1]: 1.93 µg/mL
- neutralization IC50 [2]: > 50 µg/mL
- neutralization IC90 [2]: > 50 µg/mL
- IC50 (µg/ml), pseudovirus neutralization [3]: > 50 µg/mL
- neutralization IC50 [3]: > 50 µg/mL
- neutralization IC90 [3]: > 50 µg/mL
- neutralization IC50 [4]: 34.1 µg/mL
- neutralization IC90 [4]: > 50 µg/mL
- IC50 [5]: 21.4 µg/mL
- IC50 [6]: > 50 µg/mL
- IC50 [7]: 1.52 µg/mL
- IC50 [8]: 0.42 µg/mL
- neutralization IC50 (HIV-1 APV-13 Env (HIV-1)): > 25 µg/mL
- neutralization IC90 (HIV-1 APV-13 Env (HIV-1)): > 50 µg/mL
- IC50 [9]: > 50 µg/mL
- neutralization IC50 [10]: 5 µg/mL
- IC50 [11]: 7.64 µg/mL
- IC50 (µg/ml), pseudovirus neutralization [12]: 25.9 µg/mL
- IC50 (µg/ml), pseudovirus neutralization [13]: > 50 µg/mL
- IC50 (µg/ml), pseudovirus neutralization [14]: 0.63 µg/mL
- IC50 (µg/ml), pseudovirus neutralization [15]: > 50 µg/mL
- IC50 (µg/ml), pseudovirus neutralization [16]: > 50 µg/mL
- IC50 (µg/ml), pseudovirus neutralization [17]: > 50 µg/mL
- IC50 (µg/ml), pseudovirus neutralization [18]: > 50 µg/mL
- IC50 (µg/ml), pseudovirus neutralization [19]: > 50 µg/mL
- IC50 [20]: 1.51 µg/mL
- IC50 [21]: > 50 µg/mL
- IC50 [22]: > 50 µg/mL
- IC50 [23]: > 50 µg/mL
- IC50 [24]: > 50 µg/mL
- IC50 [25]: 0.75 µg/mL
- IC50 [26]: > 50000 ng/mL
- IC50 [27]: 2.11 µg/mL
- IC50 [28]: > 50 µg/mL
- IC50 [29]: 0.66 µg/mL
- IC50 (µg/ml), pseudovirus neutralization [30]: 7.75 µg/mL
- IC50 (µg/ml), pseudovirus neutralization [31]: 0.13 µg/mL
- IC50 (µg/ml), pseudovirus neutralization [32]: > 50 µg/mL
- IC50 (µg/ml), pseudovirus neutralization [33]: 1.12 µg/mL
- IC50 (µg/ml), pseudovirus neutralization [34]: > 50 µg/mL
- IC50 (µg/ml), pseudovirus neutralization [35]: 5.23 µg/mL
- IC50 (µg/ml), pseudovirus neutralization [36]: 5.92 µg/mL
- IC50 (µg/ml), pseudovirus neutralization [37]: 1.55 µg/mL
- IC50 (pseudovirus neutralization) [38]: > 50 µg/mL
- IC50 (pseudovirus neutralization) [39]: > 50 µg/mL
- IC50 (µg/ml), pseudovirus neutralization [40]: > 50 µg/mL
- IC50 (µg/ml), pseudovirus neutralization [41]: > 50 µg/mL
- IC50 (µg/ml), pseudovirus neutralization [42]: > 50 µg/mL
- IC50 (µg/ml), pseudovirus neutralization [43]: > 50 µg/mL
- IC50 (µg/ml), pseudovirus neutralization [44]: > 50 µg/mL
- IC50 (µg/ml), pseudovirus neutralization [45]: > 50 µg/mL
- IC50 (µg/ml), pseudovirus neutralization [46]: > 50 µg/mL
- IC50 (µg/ml), pseudovirus neutralization [47]: > 50 µg/mL
- IC50 (µg/ml), pseudovirus neutralization [48]: > 50 µg/mL
- IC50 [49]: 3.62 µg/mL
- IC50 (pseudovirus neutralization) [50]: > 50 µg/mL
- neutralization IC50 (aMLV envelope): > 50 µg/mL
- neutralization IC90 (aMLV envelope): > 50 µg/mL

Substance: 1496_C09 (PG9) (TCN-109) (antibody)
- IC50 [1]: 0.22 µg/mL
- IC50, TZM-bl pseudovirus neutralization [2]: 0.1 µg/mL
- neutralization IC50 [2]: 0.0637 µg/mL
- neutralization IC90 [2]: 6.55 µg/mL
- neutralization IC90 [4]: 1.89 µg/mL
- IC50 [5]: 0.03 µg/mL
- IC50 [7]: 1.07 µg/mL
- IC50 [8]: 0.006 µg/mL
- IC50 [9]: 14.6 µg/mL
- neutralization IC50 [10]: 12.9 µg/mL
- IC50 (µg/ml), pseudovirus neutralization [12]: 2.97 µg/mL
- IC50 (µg/ml), pseudovirus neutralization [14]: 0.16 µg/mL
- IC50 (µg/ml), pseudovirus neutralization [15]: 0.05 µg/mL
- IC50 [21]: 0.24 µg/mL
- IC50 [22]: 0.64 µg/mL
- IC50 [23]: 0.01 µg/mL
- IC50 [24]: 0.22 µg/mL
- IC50 [26]: 4 ng/mL
- IC50 [28]: 0.91 µg/mL
- IC50 [29]: 0.16 µg/mL
- IC50 (µg/ml), pseudovirus neutralization [30]: 0.06 µg/mL
- IC50 (µg/ml), pseudovirus neutralization [31]: 9.31 µg/mL
- IC50 (µg/ml), pseudovirus neutralization [32]: 0.06 µg/mL
- IC50 (µg/ml), pseudovirus neutralization [33]: 0.1 µg/mL
- IC50 (µg/ml), pseudovirus neutralization [34]: 0.03 µg/mL
- IC50 (µg/ml), pseudovirus neutralization [36]: 0.03 µg/mL
- IC50 (µg/ml), pseudovirus neutralization [37]: 17.5 µg/mL
- IC50 (pseudovirus neutralization) [39]: 0.03 µg/mL
- IC50 (µg/ml), pseudovirus neutralization [40]: 0.16 µg/mL
- IC50 (µg/ml), pseudovirus neutralization [41]: 0.51 µg/mL
- IC50 (µg/ml), pseudovirus neutralization [42]: 4.9 µg/mL
- IC50 (µg/ml), pseudovirus neutralization [43]: 0.19 µg/mL
- IC50 (µg/ml), pseudovirus neutralization [44]: 6.32 µg/mL
- IC50 (µg/ml), pseudovirus neutralization [45]: 1.51 µg/mL
- IC50 (µg/ml), pseudovirus neutralization [46]: 0.4 µg/mL
- IC50 (µg/ml), pseudovirus neutralization [47]: 0.01 µg/mL
- IC50 [49]: 12.4 µg/mL
